B1: A1R, untagged (plasmid ARJ194: pCEP4 A1R) (receptor)
chain: MPPSISAFQAAYIGIEVLIALVSVPGNVLVIWAVKVNQALRDATFCFIVSLAVADVAVGALVIPLAILINIGPQTYFHTCLMVACPVLILTQSSILALLAIAVDRYLRVKIPLRYKMVVTPRRAAVAIAGCWILSFVVGLTPMFGWNNLSAVERAWAANGSMGEPVIKCEFEKVISMEYMVYFNFFVWVLPPLLLMVLIYLEVFYLIRKQLNKKVSASSGDPQKYYGKELKIAKSLALILFLFALSWLPLHILNCITLFCPSCHKPSILTYIAIFLTHGNSAMNPIVYAFRIQKFRVTFLKIWNDHFRCQPAPPIDEDLPEERPDD

In this test the target is Gαi (endogenous in HEK-293 cells) (human (endogenous in HEK-293)) (UniProt P63096).
UniProt P63096, sequence (P63096 whole entry): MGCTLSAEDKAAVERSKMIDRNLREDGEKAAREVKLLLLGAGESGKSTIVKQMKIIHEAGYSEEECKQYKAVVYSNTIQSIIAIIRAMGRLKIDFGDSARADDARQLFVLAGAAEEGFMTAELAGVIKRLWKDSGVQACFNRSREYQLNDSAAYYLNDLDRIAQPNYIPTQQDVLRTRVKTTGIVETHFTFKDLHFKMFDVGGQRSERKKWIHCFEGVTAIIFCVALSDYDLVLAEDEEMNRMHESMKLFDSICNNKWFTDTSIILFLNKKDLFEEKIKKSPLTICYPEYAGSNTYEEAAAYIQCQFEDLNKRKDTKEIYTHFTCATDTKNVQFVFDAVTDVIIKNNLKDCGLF
With “A1/A2AR chimera, untagged (plasmid ARJ195: pCEP4 A1/A2AR) (from UniProt P30542 1-290; P29274 291-412) (receptor)”, the reduction in cAMP signaling in transiently transfected HEK-293 cells, 1 µM CPA with 10 μM forskolin, normalized to forskolin treated cells is 72%.
Molecule “A1/A2AΔ316R truncated chimera, untagged (plasmid ARJ196: pCEP4 A1/A2AΔ316R) (from UniProt P30542 1-290; P29274 291-316) (receptor)” returned a reduction in cAMP signaling in transiently transfected HEK-293 cells, 1 µM CPA with 10 μM forskolin, normalized to forskolin treated cells of 67%.
B1: the reduction in cAMP signaling in transiently transfected HEK-293 cells, 1 µM CPA with 10 μM forskolin, normalized to forskolin treated cells was 62%.
